# Results from PMC4490510, “Cloning, Expression and Characterization of a Thermostable Esterase HydS14 from Actinomadura sp. Strain S14 in Pichia pastoris” (International Journal of Molecular Sciences, 2015).
# Legend:
# [1] = system: T1, CC(=O)Oc1ccc([N+](=O)[O-])cc1; experiment: purified protein; assay type: biochemical, Actinomadura sp. S14; conditions: 50 mM Tris-HCl pH 8.0, 50 °C, 0.4% Triton X-100, 0.1% gum arabic
# T1 construct: ORF 258 aa, 26,604 Da, no signal peptide; secreted from Pichia pastoris X33 via pPICZalphaA with 6xHis tag (predicted 29,117 Da, ~30 kDa SDS-PAGE), Ni-Sepharose purified, not N-glycosylated
# [2] = system: T2, CCCC(=O)Oc1ccc([N+](=O)[O-])cc1; experiment: purified protein; assay type: biochemical, Actinomadura sp. S14; conditions: 50 mM Tris-HCl pH 8.0, 50 °C, 0.4% Triton X-100, 0.1% gum arabic
# T2 construct: ORF 258 aa, 26,604 Da, no signal peptide; secreted from Pichia pastoris X33 via pPICZalphaA with 6xHis tag (predicted 29,117 Da, ~30 kDa SDS-PAGE), Ni-Sepharose purified, not N-glycosylated
substance,measurement,setting,value
HydS14 (Actinomadura sp. S14),Km,[1],360 ± 10 µM
same,Vmax,[1],35.3 µmol/min/mg
same,kcat,[1],2.37 ± 0.06 s⁻¹
same,kcat/Km,[1],6590 ± 40 M⁻¹ s⁻¹
same,Km,[2],210 ± 20 µM
same,Vmax,[2],37.1 µmol/min/mg
same,kcat,[2],2.47 ± 0.07 s⁻¹
same,kcat/Km,[2],11700 ± 780 M⁻¹ s⁻¹
